Source: publication PMC9045202

Target: EFG displayed on the surface of E. coli BL21 as a fusion with InaZN and mCherry (BL21-pEImC-EFG) (Escherichia coli (ExPEC strain RS218)) (UniProt P0A6M8)
Test: fluorescence intensity of labelled ligand bound to bacteria, competition; BL21-pEImC-EFG incubated with a mixture of fluor-TF (20 μg/mL) and an excess of unlabeled holo-TF; fluorescence of 10^7 bacterial cells, excitation 485 nm, emission 535 nm

Chain of UniProt P0A6M8 (P0A6M8 whole entry, the tested form may be a part): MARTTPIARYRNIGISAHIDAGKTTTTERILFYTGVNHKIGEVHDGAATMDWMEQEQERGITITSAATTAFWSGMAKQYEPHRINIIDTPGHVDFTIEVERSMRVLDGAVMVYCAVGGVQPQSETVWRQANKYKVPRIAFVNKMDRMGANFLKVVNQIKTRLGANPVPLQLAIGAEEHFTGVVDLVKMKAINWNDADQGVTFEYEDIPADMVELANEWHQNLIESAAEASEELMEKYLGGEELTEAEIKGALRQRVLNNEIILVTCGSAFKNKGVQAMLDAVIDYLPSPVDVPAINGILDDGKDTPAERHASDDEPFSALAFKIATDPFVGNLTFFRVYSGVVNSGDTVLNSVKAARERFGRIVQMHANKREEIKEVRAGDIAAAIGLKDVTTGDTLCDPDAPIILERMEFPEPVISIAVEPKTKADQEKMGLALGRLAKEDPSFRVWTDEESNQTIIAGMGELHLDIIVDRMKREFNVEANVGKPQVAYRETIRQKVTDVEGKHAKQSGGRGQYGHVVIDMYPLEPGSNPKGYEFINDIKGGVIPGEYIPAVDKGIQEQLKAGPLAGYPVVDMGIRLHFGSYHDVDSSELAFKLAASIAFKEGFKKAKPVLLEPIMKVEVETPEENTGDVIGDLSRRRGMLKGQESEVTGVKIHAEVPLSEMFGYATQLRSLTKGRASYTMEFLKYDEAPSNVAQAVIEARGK

Substance: holo-transferrin (iron-saturated holo-TF), unlabeled (from UniProt P02787 20-698) (natural protein)
- fluorescence intensity of bound fluor-TF with an excess of unlabeled holo-TF: 76.4%
